Results taken from the supplement of paper PMC7125110.
± gives the standard error. This sample holds only a part of the variants without activity.

B1: glmS ribozyme (parent)
chain: AUAAAAGCGCCAGAACUACAGAAAUGUAGUUGACGAGGAGGAGGUUUAUCGAAUUUUCGGCGGAUGCCUCCAAA

Assays:
Settings in all cases: with glucosamine-6-phosphate
glucosamine-6-phosphate [1] = variants of: B1; assay: self-cleavage kobs at 640 uM GlcN6P; higher = faster cleavage; RNA array
How it was run: (§1)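 Glucosamine-6-phosphate in HEPES/KCl/Mg(OAc)2 buffer, at 40 μM to 10 mM, was flowed over barcoded ribozyme variants transcribed in situ by E. coli RNA polymerase on sequenced MiSeq chips. Tracking was through a hybridised Cy3 probe at 37 °C. kobs, kcat and KM came from exponential decay fits and weighted Michaelis–Menten fits of normalised per-tile medians.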

glucosamine-6-phosphate [2] = variants of: B1; assay: self-cleavage kobs at 2500 uM GlcN6P; higher = faster cleavage; RNA array
How it was run: as §1

glucosamine-6-phosphate [3] = variants of: B1; assay: self-cleavage kobs at 10000 uM GlcN6P; higher = faster cleavage; RNA array
How it was run: as §1

| Variant | self-cleavage kobs at 640 uM GlcN6P (glucosamine-6-phosphate [1]) | self-cleavage kobs at 2500 uM GlcN6P (glucosamine-6-phosphate [2]) | self-cleavage kobs at 10000 uM GlcN6P (glucosamine-6-phosphate [3]) |
| --- | --- | --- | --- |
| AUAAAAGCGCCAGAACUACAGAAAUGUAGUUUACGUGGAGGAGUUUUGUCGAAUUUUCGGCGGAUGCCUCCAAA [G32U A36U G44U A48G] | < 1e-05 s⁻¹ | < 1e-05 s⁻¹ | – |
| AUAAAAGCGCCAGAACUACAGAAAUGUAGUAGACGAGGAGGAGAUUUAUCGAAUUUUCGGCGGAUGUCUCCAAA [U31A G44A C67U] | 0.00323 ± 0.0014 s⁻¹ | 0.00757 ± 0.0024 s⁻¹ | 0.00871 ± 0.0018 s⁻¹ |
| AUAAAAGCGCCAGCACUACAGAAAUGUAGUUGACGUGGAGGGGGUUUAUCGAAUUUUCGGCGGAUGCCUCCAAA [A14C A36U A42G] | < 1e-05 s⁻¹ | < 1e-05 s⁻¹ | < 1e-05 s⁻¹ |
| AUAAAAGCGCCAGAACUACAGAAAUGUAGUUGACGAGGAGGAGGUUUAUAGAAUUUUUGGCGGAUGGCUCCAAA [C50A C58U C67G] | 8.03e-05 ± 3.9e-05 s⁻¹ | – | – |
| AUAAAAGCGCCAGCACUACAGAAAUGUAGUUGACGAGGAGGAGGUUCAUCGAAUUUUCGGCGGAUGCCUCCAAA [A14C U47C] | 0.000137 ± 2.2e-05 s⁻¹ | – | 0.00052 ± 0.00018 s⁻¹ |
| AUAAAAGCGCCAGAACUACAGAAAUGUAGUUGACGAGGAGGAGGGUUAUCGAAUUUUCGGCGGAUGCCUGCAAA [U45G C70G] | 0.000176 ± 7.2e-05 s⁻¹ | 4.73e-05 ± 1.8e-05 s⁻¹ | 0.000258 ± 6.7e-05 s⁻¹ |
| AUAAAAGCGCGAGAACUACAGAAAUGUAGUUGACGAGGAGGAGGUUUAUCGAAUUUUCGGCGGUUGCCUCCAAA [C11G A64U] | < 1e-05 s⁻¹ | < 1e-05 s⁻¹ | – |
| AUAAAAGCGCCAGAACUACAGAAAUGUAGUUGACGAGGAGGAGGCGUAUCGAAUUUACGGCGGAUGCCUCCAAA [U45C U46G U57A] | < 1e-05 s⁻¹ | – | – |
| AUAAAAACGCCAGAACUACAGAAAUGUAGUUGCCGAGGAGGAGGUUUAUCGAAUUUUCGGCGGAUCCCUCCAAA [G7A A33C G66C] | < 1e-05 s⁻¹ | – | – |
| AUAAAAGCGCCAGAACUACAGAAAUGUAGUUGACGAGGAGGAGGUUUAUCGUAUUUUCGGCGGAUGCCUGAAAA [A52U C70G C71A] | 8.24e-05 ± 2.8e-05 s⁻¹ | – | – |
| AUAAAAGCGCCAGUUCUACAGAAAUGUAGUUGACGAGGAGGAGGUUUAUCGAAUUUUCGUCGGAUGCCUCUAAA [A14U A15U G60U C71U] | < 1e-05 s⁻¹ | – | < 1e-05 s⁻¹ |
| AUAAACGCGCCAGAACUACAGAAAUGUAGUUGACGAGGAGGAGGUUUAUCGAAUUUUCCUCGGAUGCCUCCAAA [A6C G59C G60U] | < 1e-05 s⁻¹ | < 1e-05 s⁻¹ | – |
| AUAAAAGCGCCAGAACUACAGAAAUGUACUUGACGAGGAGGAGGUUCAUCGAAUUUUCGGCGGAUGCCUUCAAA [G29C U47C C70U] | 8.05e-05 ± 1.3e-05 s⁻¹ | 0.000105 ± 2.4e-05 s⁻¹ | – |
| AUAAAAACGCCACGACUACAGAAAUGUAGUUGACGAGGAGGAGGUUUAUCGAAUUUUCGGCGGAUGCCGCCAAA [G7A G13C A14G U69G] | < 1e-05 s⁻¹ | < 1e-05 s⁻¹ | – |
| AUAAAAGCGCAAGAACUACAGAAAUGUAGUUGACGAGGAGGAGGUUUAUCGAAUUUUCGGUGGAUGCCUCCAAA [C11A C61U] | < 1e-05 s⁻¹ | < 1e-05 s⁻¹ | < 1e-05 s⁻¹ |
| AUAAAAGCGCCGGAACUACAAAAAUGUAGUUGACGAGGAGGAUGUUUAUCGAAUUUUCCGCGGAUGCCUUCAAA [A12G G21A G43U G59C C70U] | < 1e-05 s⁻¹ | < 1e-05 s⁻¹ | – |
| AUAAAAGCGCACGAACUACAGAAAUGUAGUUGACGAGGAGGAGGUUUAUCGAGUUGUCGGCGGAUGCCUCCAAA [C11A A12C A53G U56G] | 6.8e-05 ± 1.5e-05 s⁻¹ | 0.000323 ± 6.9e-05 s⁻¹ | – |
| AUAAAAGCGCCAGAUCUACAGAAAUGUAGUUGACCAGGAGGAGGUUUAUUGAAUUUUCGGCGGAUGCCUCCAAA [A15U G35C C50U] | < 1e-05 s⁻¹ | – | – |
| AUAAAAGCGCCAGAACUACAGAAAUGUAGUUGACGAGGAGGAGGUUUAUAGAAUUUUCGGCCGGUGCCUCCAAA [C50A G62C A64G] | < 1e-05 s⁻¹ | – | – |
| AUAAAAGCGCCAGAACUACAGAAAUGUAGUUGACGAGGAGGAGAUUUAUCGAAUUUUCGGAGGAUACCUCCAAA [G44A C61A G66A] | < 1e-05 s⁻¹ | – | – |
| AUAAAAGCGGCAGAACUACAGAAAUGUAGUUGACGAGGAGGAGGUUUAUCGAAUUUUUGGCGUAUGCCUCCAAA [C10G C58U G63U] | < 1e-05 s⁻¹ | – | – |
| AUAAAAGCGCCAGAACUACAGAAAUGUAGUUGACAAGGAGGAGGUUUAUCGAAUUUUCAGCUGAUGCCUCCAAA [G35A G59A G62U] | < 1e-05 s⁻¹ | – | – |
| AUAAAAGCGCCAUAAUUACAGAAAUGUAGUUGACGAUGAGGAGGUUGAUCGAAUUUAUGUCGGAUGCCUCCAAA [G13U C16U G37U U47G U57A C58U G60U] | < 1e-05 s⁻¹ | – | – |

| Variant | self-cleavage kobs at 640 uM GlcN6P (glucosamine-6-phosphate [1]) | self-cleavage kobs at 2500 uM GlcN6P (glucosamine-6-phosphate [2]) | self-cleavage kobs at 10000 uM GlcN6P (glucosamine-6-phosphate [3]) |
| --- | --- | --- | --- |
| AUAAAAGCGCCAGAACUACAGAAAUGUAGUUGGCGGGGAGGAGGUUGAUCGAAUUUUCGGCGGAUGCCUCGAAA [A33G A36G U47G C71G] | 0.000121 ± 4.4e-05 s⁻¹ | – | – |
| AUAAAAGCGCCAGAACUACAGAAAUGUAGUUGACGAGGACGACGUUUAUCGAAUUUUCGGCGGAUGCCUACAAA [G40C G43C C70A] | < 1e-05 s⁻¹ | < 1e-05 s⁻¹ | – |
| AUAAAAGCGCCAGAACUACAGAAAUGUAGUUUAUGGGGAGGAGGUUUAUCAAAUUUUCGGCGGAUGCCUGCAAA [G32U C34U A36G G51A C70G] | 8.6e-05 ± 3.2e-05 s⁻¹ | – | – |
| AUAAAAGCGCCAGGACUACAGAAAUGUAGUUGACGAGGAGGAGGUUUAUCGAAUUUUCGGCGGAUUGCUCCAAA [A14G G66U C67G] | 0.000361 ± 7.9e-05 s⁻¹ | 0.00105 ± 0.00021 s⁻¹ | – |
| AUAAAAGCGCCAGAACUACAGAAAUGUAGUUGACGAGGAGGAGGUAUAUCGAAUUUUAGGUGGAUGCCUCGAAA [U46A C58A C61U C71G] | < 1e-05 s⁻¹ | < 1e-05 s⁻¹ | – |
| AUAAAAGCGACAGAACUACAGAAAUGUAGUUGACGAGAAGGAGGUUUAUCUAAUUUUCGGCGGAUGCCUGCAAA [C10A G38A G51U C70G] | 5.43e-05 ± 1.7e-05 s⁻¹ | – | – |
| AUAAAAGCACCAGAAUUACAGAAAUGUAGUUGACGAGGAGGAGGUUUAUCGAAUUUUUGGCGGAUGCCUCCAAA [G9A C16U C58U] | < 1e-05 s⁻¹ | – | – |
| AUAAAAGCGCCAGAUGUACAGAAAUGUAGUUGACGAGGAGGAGGUCUAUCGAAUUUUCGGCGGAUGCCUCCAAA [A15U C16G U46C] | < 1e-05 s⁻¹ | – | – |
| AUAAAAGCGCCAGCAUUACAGAAAUGUAGUUGACGGGGAGGAGGUUUAUCGAAUUUUCGGCGGAUGCCUCCAAA [A14C C16U A36G] | < 1e-05 s⁻¹ | – | – |
| AUAAAAGCGCCAGAACUACAGAAAUGUAGUUGACGAGGAAGAUGUUUAUAGAAUUUUCGGCGGAUGCCUCCAAA [G40A G43U C50A] | < 1e-05 s⁻¹ | – | – |
| AUAAAAGCGCCACAACUACAGAAAUGUAGUUGACGAGGAGGAGGUUUAUCGAAUUAUCGGCGGAAGCCUCCAAA [G13C U56A U65A] | < 1e-05 s⁻¹ | < 1e-05 s⁻¹ | – |
| AUAAAAGCGCAAGAACUACAGAAAUGUAGUUGACGAGGAGGAGGUUUAUCGAAUUUUCUGCGGAUGCCUGUAAA [C11A G59U C70G C71U] | 0.000202 ± 5.2e-05 s⁻¹ | 0.00032 ± 6.5e-05 s⁻¹ | 0.00015 ± 4.4e-05 s⁻¹ |
| AUAAAAGGGCCAUAACUACAGAAAUGUAGUUGUCGAGAAGGAGGUUUAUCGAAUUUUCGGCGGAUGCCUCCAAA [C8G G13U A33U G38A] | < 1e-05 s⁻¹ | – | – |
| AUAAAAGCGCCAGAACUACAGAAAUGUAGUUGACGAGGAGGAGGUUUAUCGAAAGUUCGGCGGAUGUCUCCAAA [U54A U55G C67U] | 0.000411 ± 0.00015 s⁻¹ | 0.000903 ± 0.00028 s⁻¹ | – |
| AUAAAAGCGCCAGAACUACAGAAAUGUAGUUGACGAGGAGGAGGUUUAUUGAAUUUUCUGCGGAUGCCAGCAAA [C50U G59U U69A C70G] | 0.000556 ± 0.00018 s⁻¹ | 7.32e-05 ± 2.9e-05 s⁻¹ | – |
| AUAAAAGCGCCUGAACUACAGAAAUGUAGUUGACGAGGAGGAGGUUUAUCGAAUUAUGGGCGGAUGCCUCCAAA [A12U U56A C58G] | 0.000155 ± 2.6e-05 s⁻¹ | 0.000526 ± 9e-05 s⁻¹ | – |
| AUAAAGGCGCCAGACCUACAGAAAUGUAGUUGAAGUGGAGGAGGUUUAUCGAAUUUUCGGCGGAUGCCUCCAAA [A6G A15C C34A A36U] | < 1e-05 s⁻¹ | < 1e-05 s⁻¹ | – |
| AUAAAAGCGCCAGCACUACAGAAAUGUAGUUGACGAGGAGGAGGUUUAUAGAAUUUUCGGAGGAUGCCUCCAAA [A14C C50A C61A] | 4.16e-05 ± 1.7e-05 s⁻¹ | – | – |
| AUAAAAGCGCCAGAACUACAGAAAUGUAGUUCACGAGGAGGAGGUUUAUCCAAUUUUCGGCGGAUGCCUCCAAA [G32C G51C] | < 1e-05 s⁻¹ | < 1e-05 s⁻¹ | – |
| AUAAAAGCGCCAGAACUACAGAAAUGUAGUUGACGAGGGGGAGGUUUAUCCAAUUUUCGGCGGACGCCAACAAA [A39G G51C U65C U69A C70A] | < 1e-05 s⁻¹ | < 1e-05 s⁻¹ | – |
| AUAAAAGCGCCAGAACUACAGAAAUGUAGUUGAUGAGUAGGAGGUCUAUCGAAUUGUCGUCGGAUGCCUCCAAA [C34U G38U U46C U56G G60U] | < 1e-05 s⁻¹ | – | – |
| AUAAAAGCGCCAUAACUACAGAAAUGUAGUUGACGAGGAGGCGGUUUUUCGACUUUUCGCCGGAUGCCUCCAAA [G13U A42C A48U A53C G60C] | < 1e-05 s⁻¹ | < 1e-05 s⁻¹ | – |
